# B1: Chimeric mAb R12 (rabbit variable regions, human IgG1/lambda constant regions) (antibody, V domains shown)
# VH: QEQLVESGGRLVTPGGSLTLSCKASGFDFSAYYMSWVRQAPGKGLEWIATIYPSSGKTYYATWVNGRFTISSDNAQNTVDLQMNSLTAADRATYFCARDSYADDGALFNIWGPGTLVTISS
# VL: ELVLTQSPSVSAALGSPAKITCTLSSAHKTDTIDWYQQLQGEAPRYLMQVQSDGSYTKRPGVPDRFSGSSSGADRYLIIPSVQADDEADYYCGADYIGGYVFGGGTQLTVT
# notes: Full-length IgG1 with human gamma 1 and lambda constant regions; also called parental mAb R12
# B2: huR12_4, humanized from R12 (antibody, human IgG1, V domains shown)
# VH: QVQLVESGGELVQPGGSLTLSCKASGFDFSAYYMSWVRQAPGKGLEWIATIYPSSGKTYYAASVQGRFTISADNAKNTVYLQMNSLTAADTATYFCARDSYADDGALFNIWGKGTLVTVSS
# VL: QLVLTQSPSVSAALGSSAKITCTLSSAHKTDTIDWYQQLAGQAPRYLMYVQSDGSYEKRSGVPDRFSGSASGADRYLAISRVQADDEADYYCGADYIGGYVFGGGTQLTVLG
# notes: Human IgG1 with lambda light chain
# B3: huR12_7, humanized from R12 (antibody, human IgG1, V domains shown)
# VH: QVQLVESGGELVQPGGSLTLSCKASGFDFSAYYMSWVRQAPGKGLEWIATIYPSSGKTYYAASVQGRFTISADNAKNTVSLQMNSLTAADTATYFCARDSYADDGALFNIWGKGTLVTVSS
# VL: QLVLTQSPSVSAALGSSAKITCTLSSAHKTDTIDWYQQLAGQAPRYLMYVQSDGSYEKRSGVPDRFSGSSSGADRYLIISSVQADDEADYYCGADYIGGYVFGGGTQLTVLG
# notes: as for B2
# B4: huR12_11, humanized from R12 (antibody, human IgG1, V domains shown)
# VH: QVQLVESGGALVQPGGSLTLSCKASGFDFSAYYMSWVRQAPGKGLEWIATIYPSSGKTYYAASVQGRFTISADNAKNTVYLQMNSLTAADTATYFCARDSYADDGALFNIWGQGTLVTVSS
# VL: QLVLTQSPSVSAALGSSAKITCTLSSAHKTDTIDWYQQLAGQAPRYLMYVQSDGSYEKRSGVPDRFSGSSSGADRYLIISSVQADDEADYYCGADYIGGYVFGGGTQLTVG
# notes: as for B2
# B5: huR12_16, humanized from R12 (antibody, human IgG1, V domains shown)
# VH: QVQLVESGGELVTPGGSLTLSCKASGFDFSAYYMSWVRQAPGKGLEWIASIYPSSGKTYYAAAVQGRFTISADNAKNTVYLQMNSLTAADTATYFCARDSYADDGALFNIWGQGTLVTVSS
# VL: QLVLTQSPSVSAALGSSAKITCTLSSAHKTDTIDWYQQLAGQAPRYLMYVQSDGSYEKRSGVPDRFSGSSSGADRYLIISSVQADDEADYYCGADYIGGYVFGGGTQLTVG
# notes: as for B2
# B6: chimeric mAb 2A2 (mouse variable regions, human IgG1/kappa constant regions) (antibody, V domains shown)
# VH: QVQLQQSGAELVRPGASVTLSCKASGYTFSDYEMHWVIQTPVHGLEWIGAIDPETGGTAYNQKFKGKAILTADKSSSTAYMELRSLTSEDSAVYYCTGYYDYDSFTYWGQGTLVTVSA
# VL: DIVMTQSQKIMSTTVGDRVSITCKASQNVDAAVAWYQQKPGQSPKLLIYSASNRYTGVPDRFTGSGSGTDFTLTISNMQSEDLADYFCQQYDIYPYTFGGGTKLEIK
# notes: also called chim 2A2; parental mAb 2A2
# B7: hu2A2-D23, humanized from 2A2 (antibody, human IgG1, V domains shown)
# VH: QVQLVESGAEVKKPGASVKLSCKASGYTFSDYEMHWVRQAPGQRLEWMGAIDPETGGTAYNQKFKGRVTITVDKSASTAYMELSSLRSEDTAVYYCTGYYDYDSFTYWGPGTTVTVSS
# VL: DIVMTQSPSTLSASVGDRVTITCKASQNVDAAVAWYQQKPGTAPKLLIYSASNRYTGVPSRFSGSGSGTEFTLTISSLQSEDLADYFCQQYDIYPYTFGQGTKLEIK
# notes: Human IgG1/kappa, expressed in 293T cells and purified; also called msD23-19
# B8: hu2A2-D16, humanized from 2A2 (antibody, human IgG1, V domains shown)
# VH: EVQLVESGAEVKKPGASVKVSCKASGYTFSDYEMHWVRQAPGQGLEWVGAIDPETGGTAYNQKFKGRVTMTRDTSTSTVYMELSSLRSEDTAVYYCTGYYDYDSFTYWGQGTLVTVSS
# VL: DIQMTQSPSSLSASVGDRVTITCKASQNVDAAVAWYQQKPGKAPKLLIYSASNRYTGIPTRFSGSGSGTDFTLTISSLQSEDLADYFCQQYDIYPYTFGQGTKVEIK
# notes: Human IgG1/kappa, expressed in 293T cells and purified; also called msD16-7
# B9: rbQ11, humanized from R11 (antibody, human IgG1, V domains shown)
# VH: EVQLVQSGGGLVQPGGSLRLSCAASGSDINDYPISWVRQAPGKGLEWVSFINSGGSTWYASWVKGRFTISRDNAKNSLYLQMNSLRDDDTATYFCARGYSTYYGDFNIWGQGTLVTVSS
# VL: DIVMTQSPSSLSASVGDRVTITCQASQSIDSNLAWFQQKPGKAPKSLIYRASNLASGVPSKFSGSGSGTDFTLTISSLQREDAATYYCLGGVGNVSYRTSFGGGTKVEIK
# notes: Human IgG1/kappa, expressed in 293T cells and purified; also called huR11-Q11; rbQ11-32
# B10: rbQ12, humanized from R11 (antibody, human IgG1, V domains shown)
# VH: EVQLVESGGGLVQPGGSLRLSCAASGSDINDYPISWVRQAPGKGLEWVSFINSGGSTWYASWVKGRFTISRDNAKNSLYLQMNSLRADDTATYFCARGYSTYYGDFNIWGQGTMVTVSS
# VL: EIVMTQSPSSLSASVGDRVTITCQASQSIDSNLAWFQQKPGKAPNLLIYRASNLASGVPSRFSGSGSGTEFTLTISSLQREDAATYYCLGGVGNVSYRTSFGQGTKVEIK
# notes: Human IgG1/kappa, expressed in 293T cells and purified; also called huR11-Q12; rbQ12-40
# B11: rbD4, humanized from R11 (antibody, human IgG1, V domains shown)
# VH: EVQLVESGGGLVQPGRSLRLSCTASGSDINDYPISWFRQAPGKGLEWVGFINSGGSTWYASWVKGRFTISRDDSKSIAYLQMNSLKTDDTATYFCARGYSTYYGDFNIWGQGTTVTVSS
# VL: DVVMTQSPSSLSASVGDRVTITCQASQSIDSNLAWFQQKPGKAPNLLIYRASNLASGVPSRFSGSGSGTEFTLTISSLQREDAATYYCLGGVGNVSYRTSFGQGTKVEIK
# notes: Human IgG1/kappa, expressed in 293T cells and purified; also called huR11-D4; rbD4-32
# B12: hu2A2b-Q11, humanized from 2A2 (antibody, human IgG1, V domains shown)
# VH: EVQLVQSGAEVKKPGASVKVSCKASGYTFSDYEMHWVRQAPGQGLEWLGAIDPETGGTAYNQKFKGRVTMTGDTSISTAYMELSRLTSDDTAVYYCTGYYDYDSFTYWGQGTLVSVSS
# VL: DIQMTQSPSSLSTSVGDRVTITCKASQNVDAAVAWYQQKPGKAPKLLIYSASNRYTGVASRFSGSGSGTDFTFTISSLQSEDLADYFCQQYDIYPYTFGQGTKLEIK
# notes: also called hu2A2-Q11; msQ11-3
# Experiments:
# [1] = target: T1, StrepII-tagged ROR1-extracellular domain (human) (human, UniProt Q01973 30-406); test: SPR (Biacore T200), IgG from HEK293T supernatant captured by anti-human Fc, ROR1-strep 2.5-20 nM as analyte, 1:1 model, 25 C
# T1 construct: extracellular domain; also called ROR1-strep; soluble ROR1-strep
# Description: For initial determination of huR12 clone affinities and parental R12 using transient HEK293T supernatants, IgG expression vectors were transiently transfected into 293T cells and IgG titers in supernatants were quantified by ELISA. For SPR, supernatants were diluted to 1 μg/ml IgG with running buffer (HBS-EP+ pH 7.4 (10 mM HEPES, 150 mM NaCl, 3 mM EDTA, 0.05% Tween 20)) and captured for 200 s with a flow of 30 μl/min. ROR1-strep was diluted in running buffer using 2-fold serial dilutions ranging from 20 nM to 2.5 nM. Association was measured at a flow of 30 μl/min for 120 s, and dissociation was followed for 1000 s. Capture levels ranged from 26.9 RU to 54.1 RU.
# [2] = target: T1, StrepII-tagged ROR1-extracellular …; test: SPR (Biacore T200), purified mAb captured by goat anti-human Fc-gamma IgG, ROR1-strep 1.25 to 20 nM, 120 s association, 1000 s dissociation, 1:1 model
# Description: FIG. 13: Comparison of affinities of humanized and parental R12 mAbs determined by SPR using purified antibody. The three humanized R12 mAbs indicated were expressed at large scale in HEK293T cells, purified by Protein A affinity chromatography and subjected to SPR analysis for determination of affinity towards soluble ROR1-strep. Antibodies were captured using a goat α-human Fc-gamma-specific IgG. ROR1-strep was diluted in running buffer using 2-fold serial dilutions ranging from 1.25 nM to 20 nM. Association was measured 120 s, and dissociation was followed for 1000 s. Capture levels ranged from 26.9 RU to 54.1 RU.
# [3] = target: T1, StrepII-tagged ROR1-extracellular …; test: SPR (Biacore T200), purified mAb captured by anti-human Fc, ROR1-strep 2.5-20 nM as analyte, 1:1 model, 25 C
# Description: ROR1-strep was diluted in running buffer using 2-fold serial dilutions ranging from 20 nM to 2.5 nM. Association was measured at a flow of 30 μl/min for 120 s, and dissociation was followed for 200 s. Curves were fitted using 30 s dissociation due to upper plateau formation at later timepoints. Capture levels ranged from 29.1 RU to 57.7 RU.
# T1 sequence (Q01973 other isoform, or with tags, fused parts or gaps): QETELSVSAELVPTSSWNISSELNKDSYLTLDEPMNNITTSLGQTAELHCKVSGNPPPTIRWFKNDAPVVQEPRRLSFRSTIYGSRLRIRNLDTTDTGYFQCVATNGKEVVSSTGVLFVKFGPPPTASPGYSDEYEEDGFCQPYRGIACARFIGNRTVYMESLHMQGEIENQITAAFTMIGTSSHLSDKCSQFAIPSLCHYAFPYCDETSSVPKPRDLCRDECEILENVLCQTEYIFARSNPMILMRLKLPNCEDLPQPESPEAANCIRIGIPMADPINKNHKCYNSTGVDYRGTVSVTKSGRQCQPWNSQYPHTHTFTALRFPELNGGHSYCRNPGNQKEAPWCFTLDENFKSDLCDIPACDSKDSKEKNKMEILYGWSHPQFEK
binder,measurement,setting,value
B1,Kd,[1],1.03 nM
same,koff,[1],0.000361 s⁻¹
same,kon,[1],349000 M⁻¹ s⁻¹
same,Kd,[2],0.427 nM
B2,Kd,[1],0.091 nM
same,koff,[1],9.93e-05 s⁻¹
same,kon,[1],1.09e+06 M⁻¹ s⁻¹
same,Kd,[2],0.0571 nM
B3,Kd,[1],0.11 nM
same,koff,[1],0.000116 s⁻¹
same,kon,[1],1.05e+06 M⁻¹ s⁻¹
same,Kd,[2],0.051 nM
B4,Kd,[1],0.084 nM
same,koff,[1],9.65e-05 s⁻¹
same,kon,[1],1.15e+06 M⁻¹ s⁻¹
same,Kd,[2],0.0616 nM
B5,Kd,[1],0.092 nM
same,koff,[1],8.79e-05 s⁻¹
same,kon,[1],960000 M⁻¹ s⁻¹
B6,Kd,[3],5.7 nM
same,koff,[3],0.00968 s⁻¹
same,kon,[3],1.69e+06 M⁻¹ s⁻¹
B7,Kd,[3],8 nM
same,koff,[3],0.0138 s⁻¹
same,kon,[3],1.72e+06 M⁻¹ s⁻¹
B8,Kd,[3],10.9 nM
same,koff,[3],0.0189 s⁻¹
same,kon,[3],1.73e+06 M⁻¹ s⁻¹
B9,Kd,[3],6.1 nM
same,koff,[3],0.00498 s⁻¹
same,kon,[3],821000 M⁻¹ s⁻¹
B10,Kd,[3],14.2 nM
same,koff,[3],0.0104 s⁻¹
same,kon,[3],733000 M⁻¹ s⁻¹
B11,Kd,[3],9 nM
same,koff,[3],0.0071 s⁻¹
same,kon,[3],785000 M⁻¹ s⁻¹
B12,Kd,[3],9.9 nM
same,koff,[3],0.0173 s⁻¹
same,kon,[3],1.75e+06 M⁻¹ s⁻¹

# From patent publication US20190153092A1 (NBE THERAPEUTICS, published 2019)
